Consider 84 variants from the RNAGym collection of RNA variant scans (doi:10.1093/molbev/msab373).

To fix the notation:
B1: Azoarcus group I ribozyme (parent)
chain: GUGCCUUGCGCCGGGAAACCACGCAAGGGAUGGUGUCAAAUUCGGCGAAACCUAAGCGCCCGCCCGGGCGUAUGGCAACGCCGAGCCAAGCUUCGGCGCCUGCGCCGAUGAAGGUGUAGAGACUAGACGGCACCCACCUAAGGCAAACGCUAUGGUGAAGGCAUAGUCCAGGGAGUGGCGAAAGUCACACAAACCGG

In the data set the parent is B1. Kind of data set: reverse-splicing fitness (ratio to wild type); higher = more active; in vitro selection; Mg2+ level not given. The procedure, abridged:
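An in vitro group I ribozyme library with randomized positions was T7-transcribed and gel-purified. In triplicate, 10 pmol RNA in EPPS pH 7.5 was reacted with 50 pmoles of a 30-nt RNA substrate for 1 h at 37 °C across several added MgCl2 levels (1–48 mM), then stopped with EDTA. Products were reverse transcribed from a substrate-complementary primer, PCR-amplified and sequenced (HiSeq 4000). Fitness is a variant's read proportion after selection over that before, normalised to wild type.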
As for A111C A120U A145U C169U U176C, the reverse-splicing fitness was determined as 0.0216.

With A111C A120U A145U C169U U176G, the reverse-splicing fitness stood at 0.00286.

On to A111C A120U A145U C169U U176A, for which the reverse-splicing fitness came to 0.0121.

For A111C A120U A145U C150U, the reverse-splicing fitness came out at 0.491.

As to A111C A120U A145U C150A, the reverse-splicing fitness was found to be 0.0636.

For A111C A120U A145U C150G, the reverse-splicing fitness stood at 0.0737.

Turning to A111C A120U C150G C169A U176G, the reverse-splicing fitness amounted to 0.00363.

As to A111C A120U C150G C169A U176C, the reverse-splicing fitness worked out at 0.00504.

For the variant A111C A120U C150G C169A U176A, the reverse-splicing fitness amounted to 0.00683.

Take A111C A120G C150U C169G U176G: the reverse-splicing fitness was determined as 0.00581.

Regarding A111C A120G C150U C169G U176C, the reverse-splicing fitness came to 0.0349.

On to A111C A120G C150U C169G U176A, for which the reverse-splicing fitness was 0.0233.

Regarding A111C A120G C150G C169A U176G, the reverse-splicing fitness stood at 0.00481.

A111C A120G C150G C169A U176A: the reverse-splicing fitness stood at 0.00971.

For the variant A111C A120G C150G C169A U176C, the reverse-splicing fitness was 0.0109.

Take A111C A120G C150A C169A U176A: the reverse-splicing fitness was found to be 0.0174.

Regarding A111C A120G C150A C169A U176G, the reverse-splicing fitness stood at 0.00594.

As to A111C A120G C150A C169A U176C, the reverse-splicing fitness came out at 0.023.

In the case of A111C A120U A145C C150A C169U U176G, the reverse-splicing fitness turned out to be 0.00242.

As to A111C A120U A145C C150A C169U U176A, the reverse-splicing fitness was 0.00457.

Consider A111C A120U A145C C150A C169U U176C, for which the reverse-splicing fitness came to 0.00283.

With A111C A120U A145C C150A, the reverse-splicing fitness is 0.0314.

Regarding A111C A120U A145C C150U, the reverse-splicing fitness turned out to be 0.18.

With A111C A120U A145C C150G, the reverse-splicing fitness turned out to be 0.0809.

Turning to A111C A120U A145C C150G C169G U176A, the reverse-splicing fitness turned out to be 0.00265.

As for A111C A120U A145C C150G C169G U176G, the reverse-splicing fitness is 0.00227.

Consider A111C A120U A145C C150G C169G U176C, for which the reverse-splicing fitness was 0.0032.

Take A111C A120G C150U C169A U176C: the reverse-splicing fitness stood at 0.0197.

For the variant A111C A120G C150U C169A U176G, the reverse-splicing fitness was found to be 0.00513.

Consider A111C A120G C150U C169A U176A, for which the reverse-splicing fitness worked out at 0.0176.

For the variant A111C A120U A145G C169U U176A, the reverse-splicing fitness came out at 0.0138.

In the case of A111C A120U A145G C169U U176G, the reverse-splicing fitness worked out at 0.00322.

On to A111C A120U A145G C169U U176C, for which the reverse-splicing fitness worked out at 0.0232.

For the variant A111C A120U A145G C150A C169U U176C, the reverse-splicing fitness turned out to be 0.00638.

Consider A111C A120U A145G C150A C169U U176G, for which the reverse-splicing fitness is 0.00263.

Turning to A111C A120U A145G C150A C169U U176A, the reverse-splicing fitness is 0.00876.

Consider A111C A120G C150G C169G U176A, for which the reverse-splicing fitness was 0.0066.

Regarding A111C A120G C150G C169G U176C, the reverse-splicing fitness was 0.00473.

On to A111C A120G C150G C169G U176G, for which the reverse-splicing fitness is 0.00457.

Turning to A111C A120U A145U C150U C169A, the reverse-splicing fitness was 0.00426.

On to A111C A120U A145U C150U C169G, for which the reverse-splicing fitness came out at 0.0348.

A111C A120U A145U C150U C169U: the reverse-splicing fitness came out at 0.0452.

On to A111C A120U C150A C169G U176C, for which the reverse-splicing fitness amounted to 0.00434.

For A111C A120U C150A C169G U176G, the reverse-splicing fitness amounted to 0.00245.

Consider A111C A120U C150A C169G U176A, for which the reverse-splicing fitness is 0.00448.

For the variant A111C A120U A145G C169G, the reverse-splicing fitness worked out at 0.0583.

Take A111C A120U A145G C169U: the reverse-splicing fitness was found to be 0.0781.

Regarding A111C A120U A145G C169A, the reverse-splicing fitness stood at 0.00474.

Regarding A111C A120U A145U C150G C169U U176C, the reverse-splicing fitness amounted to 0.00398.

Regarding A111C A120U A145U C150G C169U U176A, the reverse-splicing fitness is 0.00284.

Take A111C A120U A145U C150G C169U U176G: the reverse-splicing fitness was determined as 0.00279.

On to A111C A120U A145G C150G C169A U176G, for which the reverse-splicing fitness came to 0.00554.

For A111C A120U A145G C150G C169A U176C, the reverse-splicing fitness came to 0.009.

Take A111C A120U A145G C150G C169A U176A: the reverse-splicing fitness turned out to be 0.0118.

Take A111C A120U A145C C169A: the reverse-splicing fitness stood at 0.00529.

As for A111C A120U A145C C169G, the reverse-splicing fitness amounted to 0.0517.

For A111C A120U A145C C169U, the reverse-splicing fitness came out at 0.0701.

A111C A120G C150U C169A: the reverse-splicing fitness is 0.0604.

In the case of A111C A120G C150U C169G, the reverse-splicing fitness was 0.112.

On to A111C A120G C150U C169U, for which the reverse-splicing fitness worked out at 0.0919.

Regarding A111C A120U A145G C150G C169A, the reverse-splicing fitness came to 0.00873.

Take A111C A120U A145G C150G C169U: the reverse-splicing fitness was 0.0135.

For the variant A111C A120U A145G C150G C169G, the reverse-splicing fitness stood at 0.0117.

A111C A120U A145U C150U C169G U176A: the reverse-splicing fitness was 0.00509.

For A111C A120U A145U C150U C169G U176G, the reverse-splicing fitness is 0.00261.

On to A111C A120U A145U C150U C169G U176C, for which the reverse-splicing fitness is 0.00885.

In the case of A111C A120G C150U, the reverse-splicing fitness is 0.0912.

Regarding A111C A120G C150G, the reverse-splicing fitness came to 0.0159.

Turning to A111C A120G C150A, the reverse-splicing fitness was 0.0211.

On to A111C A120G C169U U176A, for which the reverse-splicing fitness was determined as 0.0433.

Consider A111C A120G C169U U176C, for which the reverse-splicing fitness came out at 0.0498.

As to A111C A120G C169U U176G, the reverse-splicing fitness was found to be 0.00657.

As for A111C A120U C150G C169G U176C, the reverse-splicing fitness amounted to 0.0039.

With A111C A120U C150G C169G U176A, the reverse-splicing fitness was determined as 0.00481.

Turning to A111C A120U C150G C169G U176G, the reverse-splicing fitness stood at 0.00234.

Turning to A111C A120U A145C C150U C169U U176C, the reverse-splicing fitness stood at 0.00414.

For A111C A120U A145C C150U C169U U176G, the reverse-splicing fitness is 0.00251.

For the variant A111C A120U A145C C150U C169U U176A, the reverse-splicing fitness was 0.00478.

Take A111C A120U C150G U176A: the reverse-splicing fitness was 0.0127.

For A111C A120U C150G U176C, the reverse-splicing fitness came to 0.0217.

As for A111C A120U C150G U176G, the reverse-splicing fitness was found to be 0.00356.

With A111C A120U A145G C150A C169U, the reverse-splicing fitness was 0.0133.

Take A111C A120U A145G C150A C169G: the reverse-splicing fitness was 0.0103.

Regarding A111C A120U A145G C150A C169A, the reverse-splicing fitness stood at 0.0061.
